Experimental data reported in patent publication US20140341809A1.

Columns and labels:
…/HLA-A2 [1] = experiment: SPR, Biacore 3000, 25 C
…/HLA-A2 [2] = experiment: SPR, against wild-type DMF5
…/HLA-A2 [3] = experiment: SPR, Biacore 3000, 25 C (FIG. 2B shows a kinetic titration for this pair)

Substance | Kd (…/HLA-A2 [1]) | ΔΔG (…/HLA-A2 [2]) | Kd (…/HLA-A2 [3])
DMF5 TCR αD27W mutant | 680 nM | -1.6 kcal/mol | –
high-affinity DMF5 variant αD27Y/βL95W (TCR) | 1700 nM | – | 24 nM
